Tests used:
[1] = target: biotinylated human D-SDF-1 (Homo sapiens) (UniProt P48061); test: pulldown; details: single Kd stated after naming 193-C2-002 and 193-G2-012
[2] = target: human SDF-1alpha (CXCL12) (Homo sapiens) (UniProt P48061); test: SPR; details: L-RNA; 5'-40 kDa PEG; Biacore 2000, 37 C
Chain of human SDF-1alpha (CXCL12) (Homo sapiens) (P48061 22-89): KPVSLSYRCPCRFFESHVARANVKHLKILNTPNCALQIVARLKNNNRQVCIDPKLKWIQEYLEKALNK

Chain of biotinylated human D-SDF-1 (Homo sapiens) (P48061 22-92): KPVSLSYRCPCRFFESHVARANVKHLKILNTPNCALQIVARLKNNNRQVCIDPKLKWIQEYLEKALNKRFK

| Sequence | Kd [1] | Kd [2] |
| --- | --- | --- |
| GCGUGGUGUGAUCUAGAUGUAGUGGCUGAUCCUAGUCAGGUACGC [193-C2-002 (D)] | 0.3 nM |  |
| GCGUGGUGUGAUCUAGAUGUAUUGGCUGAUCCUAGUCAGGUACGC [NOX-A12 (193-G2-012-5'-PEG)] |  | 0.2 nM |

Source: US20130310442
